Laboratory results from patent publication US20200199207A1 (MABYLON, published 2020).

T1: Ara h 2 (peanut, UniProt Q6PSU2 22-172)
T1 construct: also called full length Ara h 2
T1 sequence (looked up): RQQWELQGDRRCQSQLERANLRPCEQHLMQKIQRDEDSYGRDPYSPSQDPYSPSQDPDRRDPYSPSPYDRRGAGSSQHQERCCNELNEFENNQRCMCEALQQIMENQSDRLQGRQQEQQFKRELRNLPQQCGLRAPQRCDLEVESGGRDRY

T2: nBet v 1 (UniProt P15494 2-160)
T2 sequence (looked up): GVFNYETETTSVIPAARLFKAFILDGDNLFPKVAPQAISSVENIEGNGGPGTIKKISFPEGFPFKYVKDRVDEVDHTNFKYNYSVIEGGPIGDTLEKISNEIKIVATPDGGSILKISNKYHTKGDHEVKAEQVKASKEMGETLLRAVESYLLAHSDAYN

T3: nAra h 6 (peanut, UniProt Q647G9 22-145)
T3 construct: Bought natural allergen; also called naturally extracted Ara h 6
T3 sequence (looked up): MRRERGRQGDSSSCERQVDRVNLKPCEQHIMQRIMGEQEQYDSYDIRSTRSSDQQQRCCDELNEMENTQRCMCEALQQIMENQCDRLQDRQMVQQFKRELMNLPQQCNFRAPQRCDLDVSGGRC

T4: nAra h 2 (peanut, UniProt Q6PSU2 22-172)
T4 construct: Bought natural allergen; also called naturally extracted Ara h 2
T4 sequence (looked up): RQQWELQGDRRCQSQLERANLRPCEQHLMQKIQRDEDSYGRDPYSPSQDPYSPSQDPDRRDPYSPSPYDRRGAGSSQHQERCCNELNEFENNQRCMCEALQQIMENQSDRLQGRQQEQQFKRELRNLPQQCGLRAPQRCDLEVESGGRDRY

T5: nAra h 1 (peanut, UniProt P43238 85-626)
T5 construct: Bought natural allergen; also called naturally extracted Ara h 1
T5 sequence (looked up): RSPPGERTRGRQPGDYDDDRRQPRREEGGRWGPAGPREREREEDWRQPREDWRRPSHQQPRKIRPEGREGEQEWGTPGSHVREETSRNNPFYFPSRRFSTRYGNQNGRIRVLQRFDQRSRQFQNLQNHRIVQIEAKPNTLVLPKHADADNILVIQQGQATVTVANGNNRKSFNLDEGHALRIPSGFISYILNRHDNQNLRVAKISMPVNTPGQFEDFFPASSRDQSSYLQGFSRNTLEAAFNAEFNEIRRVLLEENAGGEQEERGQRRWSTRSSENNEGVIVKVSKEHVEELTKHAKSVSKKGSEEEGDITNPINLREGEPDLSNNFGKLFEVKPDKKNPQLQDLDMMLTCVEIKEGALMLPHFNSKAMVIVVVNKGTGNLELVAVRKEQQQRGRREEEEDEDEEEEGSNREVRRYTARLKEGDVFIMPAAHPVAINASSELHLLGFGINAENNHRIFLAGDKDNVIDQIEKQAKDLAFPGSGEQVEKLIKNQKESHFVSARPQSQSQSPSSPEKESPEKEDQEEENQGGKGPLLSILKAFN

B1: h12G10 (antibody, human IgG1, V domains shown)
VH: EVQLLESGGRLLRPGGSLSLSCVASGFYFGDFGMSWVRQVPGKGLEWVSGIDWSGRSTGYVDSMKGRLTISRDNDKSSLYLQMNDLRGEDTAVYYCARVGRLCSGDSCDSMGAFDLWGQGTMVTVSS
VL: DIQLTQSPSTLSASIGDSVTITCRASQNIDNWLAWYQQKPGKAPRLLIYKASSLGSGVSSKFRGSGFGTEFTLTITSLQPDDFATYYCQKSNGYSRTFGQGTKVDIK
notes: Recombinant human IgG; also called hMAb 12G10
B2: h37D5 (antibody, V domains shown)
VH: EEQLVESGGRLLRPGESLSLSCAAVGFNFGDFGMAWVRQPPGKGLEWVAGINWSGHSTGFVDSMKGRLTISRDSAKSSLFLQMNSLRGEDTAVYYCARVGRLCSGDICDSMGAFDLWGQGTMVTVSS
VL: DIQMTQSPSTLSASIGDRVTITCRASQTIDNWLAWYQQRPGKAPKLLIYQASSLQSGVSSRFRGSGSGTEFTLTITSLQPDDFATYYCQKSNGYSRTFGQGTKVEIK
notes: Recombinant human IgG; also called hMAb 37D5
B3: h32B10 (antibody, V domains shown)
VH: QVQLVQSGAEVKKPGASVKVSCRASGYIFRNFDINWVRQATGQGLEWMGWMSPKSGDTGYAQKFQGRVTMTRDTSINTAYMELSSLTSEDSAVYYCARGVDGTNWGQGTRVTVSS
VL: DIVMTQSPDSLGVSLGERATISCKSSQSILDNSNNKNFIAWFQQKPGQPPKLLIYWASARESGVPDRFSGSGSGTEFTLTINSLQAEDVAVYYCYQYYSTPHTFGQGTKLDLR
notes: Recombinant human IgG; also called hMAb 32B10
B4: h2F8 (antibody, V domains shown)
VH: EVQLVESGGGLVKPGGSLRLSCAASGFIFSDYNMNWVRQAPGKGLEWVSSITRSSRTIYYADSVKGRFTISRDNAKNSLHLQMNSLRDADTAVYYCAREDFDVSTGPYYMDVWGNGTTVIVSS
VL: EIVLTQSPGTLSLSPGERATLSCRASQSVSNMFLVWYQQKPGQAPRLLMYGASTRATDIPDRFSGSGSGTDFTLTISRLEPEDFAVYYCQQNGNSPYTFGQGTKLEIK
notes: Recombinant human IgG; also called hMAb 2F8
B5: h4B2 (antibody, V domains shown)
VH: QVQLQEAGPRLVKPSQTLSVTCTVSGASITIGGYYWSWIRQHPGKGLEWMGYIYSNGRTYYNPSLKSRIAMSIDTSKNQFSLKLTSVTAADTAIYFCAREAWETPLWGQGTLITVSS
VL: DIQMTQSPSSLSASVGDRVTITCQANQDIVNSLNWFQHKPGTAPKVLIYDASKLETGVPSRFSGSGSGTHFTFTISGLQPEDFATYFCQQYENLPHTFGQGTKLEIR
notes: Recombinant human IgG; also called hMAb 4B2
B6: h7G6 (antibody, V domains shown)
VH: QVQLVESGGGVVQPGRSLRLSCAASGIAFNDYTMHWVRRSPDKGLEWVAAISYGGTNKYYADSVKGRFTISRDSSKNTLFLQMDSLRVEDTAVYYCARDSGYRSLLHWGQGTLVTVSS
VL: EIVLTQSPLSLPVTPGEPASISCRSSQSLVHRNGYNYLDWYLQKPGQSPQLLIYMASKRASGVPDRFSGSGSGTEFTLKISRVEAEDVGIYYCMQALQTWTFGQGTKVEVN
notes: Recombinant human IgG; also called hMAb 7G6

How the values were obtained:
[1] = biological target: T1, Ara h 2; experiment: competition ELISA on coated Ara h 2; competitor: Patient B serum IgE
Description: (§1) Microplates were coated with […] of Ara h 1, Ara h 2, Ara h 3, or Ara h 6, overnight at 4° C. After washing with PBS-Tween 0.05% and blocking with 2% BSA, plates were incubated with increasing concentrations of peanut human IgG antibodies for 1 h at room temperature. Subsequently, plates were incubated with different sera dilutions or different concentrations of murine antibody (as positive control). IgE levels were detected using anti-human HRP-conjugated Fc-epsilon-specific secondary antibody (Abcam, Cambridge, UK) followed by addition of TMB solution (TMB, Sigma, Buchs, Switzerland). Binding of murine antibodies was detected using goat anti-mouse IgG (H+L)-HRP (Jackson ImmunoResearch, West Grove, Pa., USA).

[2] = biological target: T1, Ara h 2; experiment: competition ELISA on coated Ara h 2; competitor: Patient A serum IgE
Description: as §1

[3] = biological target: T1, Ara h 2; experiment: competition ELISA on coated Ara h 2; control: Healthy donor serum
Description: as §1

[4] = biological target: T1, Ara h 2; experiment: competition ELISA on coated Ara h 2; competitor: Patient F serum IgE
Description: as §1

[5] = biological target: T1, Ara h 2; experiment: competition ELISA on coated Ara h 2; competitor: Patient D serum IgE
Description: as §1

[6] = biological target: T2, nBet v 1; experiment: ELISA, antigen-coated plate
Description: (§2) EC50 binding of exemplary anti-peanut antibodies of the present invention to peanut allergens or peanut extract, was determined by ELISA. Serial dilutions of MAbs (from 1000 ng/ml down to 0.0169 ng/ml) were incubated for 2 hours with antigen-coated plates (coating overnight at 4° C. or 1 h at 37° C. with 1 μg/ml antigen in PBS, followed by wash out and blocking with 2% BSA in PBS). The plates were subsequently washed and binding of MAbs was detected with anti-human HRP-conjugated Fc-gamma-specific secondary antibody (Jackson ImmunoResearch, West Grove, Pa., USA). Concentrations of MAb resulting in half of maximal binding to respective antigens (EC50, ng/ml) were calculated using GraphPad Prism 5 software on sigmoidal dose-response curves (variable slope, 4 parameters) obtained by plotting the log of the concentration versus OD450 nm measurements; for the results see FIG. 3 and table 2.

[7] = biological target: T3, nAra h 6; experiment: ELISA, antigen-coated plate
Description: as §2

[8] = biological target: T4, nAra h 2; experiment: ELISA, antigen-coated plate
Description: as §2

[9] = biological target: T5, nAra h 1; experiment: ELISA, antigen-coated plate
Description: as §2

[10] = biological target: T6, nAra h 3 (peanut); experiment: ELISA, antigen-coated plate
T6 construct: Bought natural allergen; also called naturally extracted Ara h 3
Description: as §2

[11] = biological target: T1, Ara h 2; experiment: competition ELISA on coated Ara h 2; competitor: Patient E serum IgE
Description: as §1

[12] = biological target: T1, Ara h 2; experiment: competition ELISA on coated Ara h 2; competitor: Patient C serum IgE
Description: as §1

[13] = biological target: T1, Ara h 2; experiment: competition ELISA on coated Ara h 2; competitor: Patient G serum IgE
Description: as §1

| % inhibition of IgE binding [1] [%] | % inhibition of IgE binding [2] [%] | % inhibition of IgE binding [3] [%] | % inhibition of IgE binding [4] [%] | % inhibition of IgE binding [5] [%] | binding result [6] | EC50 [7] [ng/mL] | EC50 [8] [ng/mL] | EC50 [9] [ng/mL] | EC50 [10] [ng/mL] | % inhibition of IgE binding [11] [%] | % inhibition of IgE binding [12] [%] | % inhibition of IgE binding [13] [%] | Binder |
| --- | --- | --- | --- | --- | --- | --- | --- | --- | --- | --- | --- | --- | --- |
| 31.2 | 13.8 | 0 | 45.3 | 35.7 | no binding (tested: 1000 ng/ml) | 17.2 | 6.8 | 242 | 33.7 | 36.2 | 53.8 | 25.7 | B1 |
| 29.6 | 27.8 | 2.27 | 36.2 | 35.5 | no binding (tested: 1000 ng/ml) | 22.1 | 5.6 | 264 | 65.2 | 29.3 | ~55.1 | 45.3 | B2 |
| 26.7 | 27.8 | 0 | 23.1 | 8.5 | no binding (tested: 1000 ng/ml) | 7 | 9.2 | 8.8 | 4.9 | 29.3 | 21 | 32.8 | B3 |
| – | – | – | – | – | no binding (tested: 1000 ng/ml) | 3.4 | 5.6 | 8.5 | 2.8 | – | – | – | B4 |
| 30.6 | 39.7 | 0 | 30.8 | 9.23 | no binding (tested: 1000 ng/ml) | 7 | 6.7 | 5.9 | – | 21.9 | 13.3 | 31.8 | B5 |
| – | – | – | – | – | no binding (tested: 1000 ng/ml) | 2.6 | 4.7 | 1.9 | 1.3 | – | – | – | B6 |
